Test results taken from EP4197559A1, “IMMUNOMODULATORY PROTEIN-SIRNA COMPLEX HAVING ANTICANCER ACTIVITY” (Korea Institute of Science and Technology, priority 2020, dated 2022).

Assays:
HT-29 cells = assay: Intracellular delivery (uptake) by confocal microscopy; assay type: cell-based, human
Description: First, 2×10^5 HT-29 cells, which are human-derived colon cancer cells, were seeded onto a 35-mm cover glass bottom dish. […] Then, CD47 SiRNA was stained red by using the TOTO3 stain. Next, after treating with the fusion protein-siRNA complex separated and purified in Example 2 at a concentration of 100 pmol/mL, the cells were cultured for 4 hours in a carbon dioxide incubator at 37 °C. Then, the cells were treated with a fixative and the SIRPα protein was stained green using FITC-labeled His-tag antibody. After staining the nuclei of the cells by treating with a 4',6-diamidino-2-phenylindole (DAPI) solution for 10 minutes, fluorescence was measured by confocal microscopy.
In the figure, the blue color corresponds to the nuclei of the cells, the red color to the CD47 siRNA, and the green color to the SIRPα protein.

CD47 gene = assay: Silencing effect for CD47 gene expression (RT-PCR, agarose gel); assay type: cell-based, mouse; settings: CT26.CL25 cells, 4 hours serum-free then 2 days, without CD47 antibody (-)
HPRT gene = assay: Silencing effect for HPRT gene expression (RT-PCR, agarose gel); assay type: cell-based, rat; settings: CT26.CL25 cells, 4 hours serum-free then 2 days
[1] = tested on: macrophages (bone marrow-derived macrophages, BMDM); assay: Macrophage phagocytosis of treated cancer cells (fluorescence microscopy); assay type: cell-based, mouse
Description: After the culturing was completed, the CT26.CL25 cells were stained with pHrodo Red (Invitrogen, CA, USA) and, after adding macrophages (bone marrow-derived macrophages, BMDM) extracted from the bone marrow of a laboratory mouse (C57BL/6, male, 6-week-old), cultured for 3 hours in RPMI 1640 medium. The macrophages were stained with Green Cell Tracker (Thermo Fisher Scientific, MS, USA) and fluorescence was measured using a fluorescence microscope (Nikon, Japan).
A control group was treated only with the SIPRα protein.

papain enzyme = biological target: T1, papain enzyme (Carica papaya, UniProt P00784); assay: Enzyme specificity: cleavage by papain enzyme, analysed by HPLC; assay type: biochemical
T1 sequence (P00784 134-345): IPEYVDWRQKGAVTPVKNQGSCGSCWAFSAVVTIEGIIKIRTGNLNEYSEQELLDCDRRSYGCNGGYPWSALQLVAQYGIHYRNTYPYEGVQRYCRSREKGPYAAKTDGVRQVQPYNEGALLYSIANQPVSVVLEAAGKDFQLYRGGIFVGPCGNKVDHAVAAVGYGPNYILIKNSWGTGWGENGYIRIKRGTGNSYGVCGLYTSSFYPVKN
Description: After adsorbing the sample to a C18 column (Xbridge C18, Waters, MS, USA), it was analyzed by HPLC (Agilent Technologies, CA, USA) while eluting for 30 minutes with concentration gradients using 0.1% TFA/5-95% ACN solutions.

CT26.CL25 cells = assay: Cytotoxicity by CCK-8 (cell counting kit-8); assay type: cell-based, mouse; settings: 800 nM, 72 hours
Description: Then, the cells were analyzed using the CCK-8 (cell counting kit-8) kit.

cancer cells = assay: Pharmacological effect on cancer cells (general statement, no method given)

B1: Example 2: Immunoregulatory fusion protein (SIRPα-linker, SEQ ID NO 1) bound 1 : 1 via cysteine thiol-maleimide to CD47 siRNA (SEQ ID NO 17/18) (conjugate)
chain 1: EEELQIIQPDKSVLVAAGETATLRCTITSLFPVGPIQWFRGAGPGRVLIYNQRQGPFPRVTTVSDTTKRNNMDFSIRIGNITPADAGTYYCIKFRKGSPDDVEFKSGAGTELSVRAKPVDGGFLGGGGCG
chain 2: gggauauuaauacuacuucaguacaca
chain 3: uguacugaaguauuaauauccccg
modifications: cysteine thiol-maleimide conjugation of protein to siRNA; fusion protein; siRNA_DNA : The 26th and 27th nucleotide sequences are DNA; siRNA ansti sense
- absorption into cells (HT-29 cells; confocal microscopy): effectively absorbed into cells
- intracellular uptake (HT-29 cells; treated together with the CD47 antibody): decreased significantly
- expression of the CD47 gene (CD47 gene): decreases the expression of the CD47 gene to a level comparable to that of the lipofectamine-siRNA complex
- expression level of the HPRT gene (HPRT gene): little change in the expression level of the HPRT gene
- phagocytosis by macrophages ([1]; CT26.CL25 cells treated at 200 pmol/mL for two days, then BMDM for 3 hours, compared with siRNA alone): enhances phagocytosis by macrophages better than when the siRNA was used alone
- effect of enhancing macrophage phagocytosis as compared to only the siRNA (CD47 siRNA) or the SIPRα protein ([1]; printed as 1.5-3 times or higher): 1.5-3 times
- SIRPα protein detected by HPLC (papain enzyme; after treating with the papain enzyme, room temperature, 10 minutes): detected after treating with the papain enzyme
- SIRPα protein detected by HPLC (papain enzyme; complex not treated with the papain enzyme (control)): not detected
- cell viability (CT26.CL25 cells): ≥ 80%
- superior pharmacological effect on cancer cells as compared to the fusion protein or the siRNA administered alone (cancer cells): 1.5-5 times
